Data: patent publication US20050037963A1

How the values were obtained:
[1] = biological target: endogenous FAK of NIH 3T3 cells (mouse) (UniProt P34152); assay: cell-based or functional assay
[2] = biological target: endogenous FIP200 of NIH 3T3 cells (mouse) (UniProt Q9ESK9); assay: cell-based or functional assay
endogenous FIP200 of NIH 3T3 cells (mouse), sequence (Q9ESK9 whole entry): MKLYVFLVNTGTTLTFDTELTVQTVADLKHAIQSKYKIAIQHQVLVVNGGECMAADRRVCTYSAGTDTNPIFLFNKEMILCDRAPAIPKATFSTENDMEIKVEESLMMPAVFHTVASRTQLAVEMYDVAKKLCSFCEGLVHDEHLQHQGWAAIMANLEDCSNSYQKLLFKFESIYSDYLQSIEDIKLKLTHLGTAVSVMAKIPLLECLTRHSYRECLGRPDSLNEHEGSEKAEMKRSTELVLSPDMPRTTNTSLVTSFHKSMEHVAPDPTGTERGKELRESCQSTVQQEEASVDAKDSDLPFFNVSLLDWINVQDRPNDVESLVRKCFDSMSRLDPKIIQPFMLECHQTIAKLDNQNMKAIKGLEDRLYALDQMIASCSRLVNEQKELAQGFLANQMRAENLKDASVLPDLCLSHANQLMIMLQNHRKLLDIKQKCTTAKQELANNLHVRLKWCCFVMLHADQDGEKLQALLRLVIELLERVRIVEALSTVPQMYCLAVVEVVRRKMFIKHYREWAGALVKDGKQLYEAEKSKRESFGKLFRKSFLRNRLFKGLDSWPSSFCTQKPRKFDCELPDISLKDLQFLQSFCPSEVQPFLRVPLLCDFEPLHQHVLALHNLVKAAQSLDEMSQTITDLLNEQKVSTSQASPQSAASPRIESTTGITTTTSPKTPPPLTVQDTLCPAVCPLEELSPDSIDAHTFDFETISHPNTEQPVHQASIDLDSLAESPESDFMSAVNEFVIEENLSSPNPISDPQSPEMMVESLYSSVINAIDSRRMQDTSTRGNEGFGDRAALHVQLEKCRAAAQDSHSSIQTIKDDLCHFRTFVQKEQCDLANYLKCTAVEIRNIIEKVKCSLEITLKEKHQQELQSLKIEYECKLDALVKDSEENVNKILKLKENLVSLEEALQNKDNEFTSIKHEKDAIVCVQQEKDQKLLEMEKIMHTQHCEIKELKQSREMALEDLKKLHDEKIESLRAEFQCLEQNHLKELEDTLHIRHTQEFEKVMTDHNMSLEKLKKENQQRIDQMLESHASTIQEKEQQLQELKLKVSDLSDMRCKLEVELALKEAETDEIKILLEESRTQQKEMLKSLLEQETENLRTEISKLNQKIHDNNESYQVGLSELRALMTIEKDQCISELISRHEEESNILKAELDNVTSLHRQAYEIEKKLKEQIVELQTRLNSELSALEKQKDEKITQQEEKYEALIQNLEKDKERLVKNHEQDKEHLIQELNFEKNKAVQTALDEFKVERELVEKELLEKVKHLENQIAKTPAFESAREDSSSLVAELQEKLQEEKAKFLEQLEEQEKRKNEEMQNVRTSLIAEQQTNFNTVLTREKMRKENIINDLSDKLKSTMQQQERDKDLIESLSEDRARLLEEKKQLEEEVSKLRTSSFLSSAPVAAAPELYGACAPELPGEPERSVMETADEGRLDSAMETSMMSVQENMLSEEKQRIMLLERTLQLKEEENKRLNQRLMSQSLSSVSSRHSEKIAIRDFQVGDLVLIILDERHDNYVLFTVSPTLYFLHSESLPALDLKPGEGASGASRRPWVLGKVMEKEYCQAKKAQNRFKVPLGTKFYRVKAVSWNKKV

endogenous FAK of NIH 3T3 cells (mouse), sequence (P34152 2-1052 limits assumed): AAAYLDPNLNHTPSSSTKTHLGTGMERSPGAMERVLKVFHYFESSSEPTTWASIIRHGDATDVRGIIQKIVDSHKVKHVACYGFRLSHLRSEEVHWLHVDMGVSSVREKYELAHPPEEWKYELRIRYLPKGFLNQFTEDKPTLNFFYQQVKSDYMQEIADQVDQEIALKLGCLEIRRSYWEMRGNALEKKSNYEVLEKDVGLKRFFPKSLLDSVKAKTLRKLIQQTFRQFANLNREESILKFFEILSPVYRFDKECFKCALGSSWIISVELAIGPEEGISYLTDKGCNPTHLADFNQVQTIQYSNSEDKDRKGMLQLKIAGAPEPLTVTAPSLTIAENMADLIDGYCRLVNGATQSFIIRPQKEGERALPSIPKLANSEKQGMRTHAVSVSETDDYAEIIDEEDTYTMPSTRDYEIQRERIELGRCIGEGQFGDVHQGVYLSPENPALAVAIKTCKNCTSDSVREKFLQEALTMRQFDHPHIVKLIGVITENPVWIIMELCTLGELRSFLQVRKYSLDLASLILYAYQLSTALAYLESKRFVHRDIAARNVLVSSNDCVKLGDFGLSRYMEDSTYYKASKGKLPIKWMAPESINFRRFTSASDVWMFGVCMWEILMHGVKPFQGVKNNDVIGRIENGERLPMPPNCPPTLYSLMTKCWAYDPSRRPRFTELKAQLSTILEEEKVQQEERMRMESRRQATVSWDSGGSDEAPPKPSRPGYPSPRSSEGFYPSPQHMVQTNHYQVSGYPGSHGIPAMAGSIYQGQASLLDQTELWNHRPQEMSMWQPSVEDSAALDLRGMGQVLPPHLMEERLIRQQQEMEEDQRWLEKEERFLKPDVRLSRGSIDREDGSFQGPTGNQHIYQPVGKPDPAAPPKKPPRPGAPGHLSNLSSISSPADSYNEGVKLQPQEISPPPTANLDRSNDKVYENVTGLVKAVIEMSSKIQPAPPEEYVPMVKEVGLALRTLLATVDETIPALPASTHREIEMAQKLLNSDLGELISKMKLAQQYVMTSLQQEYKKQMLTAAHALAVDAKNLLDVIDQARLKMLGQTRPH

Row | Substance | inhibition of cell spreading on FN (NIH3T3, β-gal cotransfection) [1] [%] | further results
1 | Flag-tagged full-length FIP200 (from UniProt Q8TDY2 1-1594) | 50 | –
2 | Flag-tagged MD-FIP (middle domain FIP200, residues 639-1373) (from UniProt Q8TDY2 639-1373) | 50 | –
3 | HA-tagged KD^KR (FAK kinase domain, residues 403-672, with the kinase-defective mutation K454 to R) | – | cells entering S-phase on PLL (BrdU incorporation, NIH3T3) [2]: 30%
4 | Flag-tagged NT-FIP (NH2-terminal FIP200, residues 1-638) (from UniProt Q8TDY2 1-638) | 50 | –
5 | HA-tagged full-length FIP200 (pKH3-FIP200, residues 1-1591) (from UniProt Q8TDY2 1-1594) | – | inhibition of cell cycle progression (BrdU incorporation, NIH3T3) [1]: 90%
